From article doi:10.1101/2023.02.16.528799

Target: TAX peptide, Human T-cell leukemia virus type I peptide on HLA-A2 (human)
Assay: data from Cole et al., 2013

“A6-TCR after mutation of the CDR3 beta loop (PDBID 4FTV)” showed a fold enhancement of binding over A6-TCR of 1000 fold.
